Literature values in PMC9154193.
One block for each substance: values may come before it.

How the values were obtained:
Lck SH2 (Homo sapiens) = Lck SH2 (Homo sapiens) (UniProt P06239)
Grb2 SH3 (Homo sapiens) = Grb2 SH3 (Homo sapiens) (UniProt P62993)
ULBP3 (Homo sapiens) = ULBP3 (Homo sapiens) (UniProt Q9BZM4)
Chain of UniProt Q9BZM4 (Q9BZM4 30-217): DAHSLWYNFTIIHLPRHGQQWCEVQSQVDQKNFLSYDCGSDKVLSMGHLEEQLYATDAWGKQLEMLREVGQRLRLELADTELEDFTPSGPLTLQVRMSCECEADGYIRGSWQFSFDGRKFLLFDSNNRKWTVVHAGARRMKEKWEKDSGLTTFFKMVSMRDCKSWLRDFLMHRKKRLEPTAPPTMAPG

Chain of UniProt P62993 (P62993 156-215): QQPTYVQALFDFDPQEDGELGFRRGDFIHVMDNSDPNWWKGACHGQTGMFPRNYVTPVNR
Chain of UniProt P06239 (P06239 124-227): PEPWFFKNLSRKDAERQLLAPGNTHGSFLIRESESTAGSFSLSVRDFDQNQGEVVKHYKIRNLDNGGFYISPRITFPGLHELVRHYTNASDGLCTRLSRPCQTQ

- Kd (Lck SH2 (Homo sapiens)): 1.39 µM
Substance: Vav1 phospho-tyrosine region (from UniProt P15498)

- Kd (Grb2 SH3 (Homo sapiens)): 16.8 µM
Substance: Vav1 SH3 (from UniProt P15498)

- Kd (ULBP3 (Homo sapiens)): 4 µM
Substance: NKG2D (from UniProt P26718)
